Earlier results in publication PMC8470622.
Where “and” joins values, the source holds several entries; their conditions need not be identical. Equal values may be shown once. Read-outs that look alike come from different tables or passages of the source.

Columns and labels:
EGFR (Homo sapiens) [1] = molecular target: EGFR (Homo sapiens) (UniProt P00533)
EGFR (Homo sapiens) [2] = molecular target: EGFR (Homo sapiens) (UniProt P00533); assay: radioligand
[3] = molecular target: EGFR (low-affinity state) (Homo sapiens) (UniProt P00533); assay: radioligand
[4] = molecular target: EGFR (high-affinity state) (Homo sapiens) (UniProt P00533); assay: radioligand

Kd (EGFR (Homo sapiens) [1]): 0.3 nM and 0.32 nM
Kd (EGFR (Homo sapiens) [2]): 1.52 nM
Kd [3]: 2.85 nM
Kd [4]: 1.06 nM
Substance: EGF (from UniProt P01133)
